Tests used:
Test in all cases: co-IP
[1] = target: Rv1566-V5 (Mycobacterium tuberculosis)
[2] = target: Rv1926c-V5 (Mycobacterium tuberculosis) (UniProt P9WIP1)
[3] = target: myc-UBQLN1 (human) (human) (UniProt Q9UMX0)

UniProt P9WIP1, sequence (P9WIP1 30-159): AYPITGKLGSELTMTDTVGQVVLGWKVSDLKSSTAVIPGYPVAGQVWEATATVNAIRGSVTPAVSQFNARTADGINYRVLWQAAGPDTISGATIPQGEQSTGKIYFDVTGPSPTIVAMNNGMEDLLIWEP

Substance	percent of the amount directly precipitated [1] [%]	percent of the amount precipitated directly with the myc antibody [2] [%]	percent of the amount directly precipitated [3] [%]
myc-UBQLN1 (human) (from UniProt Q9UMX0 1-589) (natural protein)	7	27	
Rv1566-V5 (natural protein)			7
